Test results from patent publication US20140255414A1 (PROBIODRUG, published 2014).
Square brackets hold non-standard residues; d marks the D form. pGlu = O=C1CC[C@@H](C(=O)O)N1; PEG = not defined here

How the values were obtained:
[1] = target: T1, CCL8 (known as MCP-2) pyroglutamate-peptide (UniProt P80075 24-99, limits assumed, N-terminal pyroglutamate); experiment: SPR, peptide immobilized on CM5 chip (data not shown)
T1 sequence (peptide, looked up): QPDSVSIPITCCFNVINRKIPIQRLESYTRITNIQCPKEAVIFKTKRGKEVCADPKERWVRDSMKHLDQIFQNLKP

[2] = target: T2, big gastrin pyroglutamate-peptide (UniProt P01350 59-92, N-terminal pyroglutamate); experiment: as above
T2 peptide (looked up): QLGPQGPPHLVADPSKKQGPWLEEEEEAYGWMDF

[3] = target: T3, gonadoliberin pyroglutamate-peptide (UniProt P01148 24-33, N-terminal pyroglutamate); experiment: as above
T3 peptide (looked up): QHWSYGLRPG

[4] = target: neurotensin pyroglutamate-peptide (UniProt P30990 151-163, N-terminal pyroglutamate); experiment: as above
[5] = target: T4, orexin A pyroglutamate-peptide (UniProt O43612 34-66, N-terminal pyroglutamate); experiment: as above
T4 peptide (looked up): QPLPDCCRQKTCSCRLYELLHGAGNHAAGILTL

[6] = target: CCL2 (known as MCP-1) pyroglutamate-peptide (UniProt P13500 24-99, limits assumed, N-terminal pyroglutamate); experiment: as above
Chain of CCL2 (known as MCP-1) pyroglutamate-peptide (P13500 24-99 limits assumed): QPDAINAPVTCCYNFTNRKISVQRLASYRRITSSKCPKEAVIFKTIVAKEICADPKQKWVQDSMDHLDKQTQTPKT

Aβ(pE11-18)-PEG peptide = target: T5, Aβ(pE11-18)-PEG peptide (reading uncertain); experiment: ITC at 20 °C, peptide titrated into antibody eluted with KSCN gradient
T5 construct: The PEG attachment is not described further
T5 peptide: [pGlu]VHHQKLV-{PEG}
Experimental: The measurement of heat of reaction was performed at 20° C. Furthermore the heat of reaction was determined which was only generated by dilution of the antigen through the titration into ITC buffer (pH=7.1). Therefore the antigen was injected into the sample cell filled with ITC buffer. The heat of reaction which was generated during the titration of the antigen to the antibody was corrected about this value. The analysis of raw data and the determination of the association constant (KA), reaction stoichiometry (n), binding enthalpy (ΔH) and entropy (ΔS) was performed with Origin Software of MicroCal.
To characterize the binding of anti Aβ11(pE) antibody at the Aβ(pE11-18)-PEG peptide the method of Isothermal Titration calorimetry (ITC) was used (see section 1.3.4). The antibody which was eluted from protein G column with KSCN-gradient (pH 7.0) and 0.1 M glycine-HCl (pH 2.7) was analyzed. With ITC the reaction stoichiometry (N), association constant (KA), binding enthalpy (ΔH) as well as the entropy (ΔS) were determined. The peptide was titrated to anti Aβ11(pE) antibody in the ITC MicroCalorimeter as described in section 1.3.4.2. […] The reaction partners interact and heat is released or absorbed in direct proportion to the amount of binding events. Each injection of antigen leads to change of temperature. To compensate the temperature difference between the sample and reference cell the addition or removal of heat to the sample cell occurs and serves as measurement signal.
At first the heat of the Aβ(pE11-18)-PEG dilution in ITC buffer was determined (see FIG. 16, upper trace). […] Afterwards the peptide Aβ(pE11-18)-PEG was titrated to anti Aβ11(pE) antibody in the sample cell (see FIG. 16, lower trace). The total heat release after each injection was determined by integration of the area between each peak and baseline. Then the heat of dilution (see FIG. 16, upper trace) was subtracted from the total heat release of each injection.

AβpE(3-40) peptide = target: T6, AβpE(3-40) peptide (N-terminal pyroglutamate (Aβ position 3)); experiment: SPR, 1 µg/ml antibody over immobilized AβpE(3-40) against immobilized AβpE(11-30)
T6 construct: Immobilized on a CM5 chip at 1830 RU; also called Aβ3(pE); Aβ N3pE-40
T6 sequence (peptide, as listed by the source): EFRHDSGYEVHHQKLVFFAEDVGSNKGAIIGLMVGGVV

binding result [1]: no binding (tested: 1 µg/ml antibody) | binding result [2]: no binding (tested: 1 µg/ml antibody) | binding result [3]: no binding (tested: 1 µg/ml antibody) | binding result [4]: no binding (tested: 1 µg/ml antibody) | binding result [5]: no binding (tested: 1 µg/ml antibody) | binding result [6]: no binding (tested: 1 µg/ml antibody) | -TΔS (Aβ(pE11-18)-PEG peptide): -1.27 kcal/mol | Ka (Aβ(pE11-18)-PEG peptide): 1.27e+07 M⁻¹ | Stoichiometry (N) (Aβ(pE11-18)-PEG peptide): 1.88 | cross reactivity relative to AβpE(11-30) (AβpE(3-40) peptide): 4 magnitudes lower
B1: monoclonal mouse anti Aβ11(pE) antibody Aβ 13-11-6 (clone 13), Deposit No. DSM ACC 3100 (antibody, V domains shown)
VH: QVQLQQPGTELVKPGASVKLSCKASGFTFTSYWMHWVRQRPGQGLEWIGEINPSNGRTNYNEKFKSKATLTVDKSSSTAYMQLSSLTSEDSEVYYCARGDLAWDWSAYWGQGTLVTVSA
VL: DIVMSQSPSSLAVSAGEKVTMSCKSSQSLFYSRTRKNYLAWYQQKPGQSPKLLIYWASTRESGVPDRFTGSGSGTDFTLTISSVQAEDLAVYYCKQSYNLWSFGGGTKLEIKR
notes: The KSCN-eluted and glycine-HCl-eluted preparations are the same molecule; also called pEVHH-59025 13-11-6; mAb mouse anti Aβ11(pE)
